Columns and labels:
[1] = test system: AxCT mask27 EpCAM H90.2 L061 version 1
[2] = test system: AxCT mask27 EpCAM H90.2 NCLV
[3] = test system: AxCT mask27 EpCAM H90.2 L059 version 1
[4] = test system: AxCT mask27 EGFR EH104 L068 version 1
[5] = test system: AxCT mask27 EGFR EH104 L060 version 1
[6] = test system: AxCT mask27 EGFR EH104 L041 version 1
[7] = test system: AxCT mask27 EpCAM H90.2 L073 version 1
[8] = test system: AxCT mask27 EGFR EH104 L071 version 1
[9] = test system: AxCT mask27 EpCAM H90.2 L075 version 1
[10] = test system: AxCT mask27 EGFR EH104 L061 version 1
[11] = test system: AxCT mask27 EGFR EH104 L072 version 1
[12] = test system: AxCT mask27 EGFR EH104 L065 version 1
[13] = test system: AxCT mask27 EGFR EH104 L066 version 1
[14] = test system: AxCT mask27 EpCAM H90.2 L043 version 1
[15] = test system: AxCT mask27 EpCAM H90.2 L060 version 1
[16] = test system: AxCT mask27 EGFR EH104 L059 version 1
[17] = test system: AxCT mask27 EGFR EH104 L040 version 1
[18] = test system: AxCT mask27 EGFR EH104 L058 version 1
[19] = test system: AxCT mask27 EGFR EH104 L063 version 1
[20] = test system: AxCT mask27 EpCAM H90.2 L063 version 1
[21] = test system: AxCT mask27 EGFR EH104 L043 version 1
[22] = test system: AxCT mask27 EGFR EH104 L062 version 1
[23] = test system: AxCT mask27 EGFR EH104 L054 version 1
[24] = test system: AxCT mask27 EGFR EH104 L073 version 1
[25] = test system: AxCT mask27 EGFR EH104 L001 version 1
[26] = test system: AxCT mask27 EGFR EH104 L056 version 1
[27] = test system: AxCT mask27 EpCAM H90.2 L040 version 1
[28] = test system: AxCT mask27 EGFR EH104 L055 version 1
[29] = test system: AxCT mask27 EpCAM H90.2 L064 version 1
[30] = test system: AxCT mask27 EGFR EH104 L064 version 1
[31] = test system: AxCT mask27 EGFR EH104 L070 version 1
[32] = test system: AxCT mask27 EGFR EH104 L067 version 1
[33] = test system: AxCT mask27 EGFR EH104 L057 version 1
[34] = test system: AxCT mask27 EGFR EH104 L069 version 1
[35] = test system: AxCT mask27 EpCAM H90.2 L041 version 1
[36] = test system: AxCT mask27 EpCAM H90 L001 version 1
[37] = test system: AxCT mask27 EpCAM H90.2 L076 version 1

Chain of MMP-9 (chain, as listed by the source): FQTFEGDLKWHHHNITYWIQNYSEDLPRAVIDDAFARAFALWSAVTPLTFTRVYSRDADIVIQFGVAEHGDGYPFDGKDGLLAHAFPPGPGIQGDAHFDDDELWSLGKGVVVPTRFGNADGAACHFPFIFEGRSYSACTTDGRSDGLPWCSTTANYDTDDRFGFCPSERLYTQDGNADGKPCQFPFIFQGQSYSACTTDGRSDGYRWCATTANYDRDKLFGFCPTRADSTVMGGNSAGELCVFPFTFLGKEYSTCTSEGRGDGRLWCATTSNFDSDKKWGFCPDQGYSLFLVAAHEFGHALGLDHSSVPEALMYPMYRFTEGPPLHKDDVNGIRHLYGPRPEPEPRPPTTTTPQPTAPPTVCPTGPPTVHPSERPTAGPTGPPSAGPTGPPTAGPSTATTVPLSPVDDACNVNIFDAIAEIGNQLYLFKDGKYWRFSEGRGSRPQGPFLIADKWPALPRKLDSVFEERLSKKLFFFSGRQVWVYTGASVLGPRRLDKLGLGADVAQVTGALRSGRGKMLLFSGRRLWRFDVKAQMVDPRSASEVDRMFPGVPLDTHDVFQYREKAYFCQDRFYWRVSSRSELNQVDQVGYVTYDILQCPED
Chain of MMP-8 (chain, as listed by the source): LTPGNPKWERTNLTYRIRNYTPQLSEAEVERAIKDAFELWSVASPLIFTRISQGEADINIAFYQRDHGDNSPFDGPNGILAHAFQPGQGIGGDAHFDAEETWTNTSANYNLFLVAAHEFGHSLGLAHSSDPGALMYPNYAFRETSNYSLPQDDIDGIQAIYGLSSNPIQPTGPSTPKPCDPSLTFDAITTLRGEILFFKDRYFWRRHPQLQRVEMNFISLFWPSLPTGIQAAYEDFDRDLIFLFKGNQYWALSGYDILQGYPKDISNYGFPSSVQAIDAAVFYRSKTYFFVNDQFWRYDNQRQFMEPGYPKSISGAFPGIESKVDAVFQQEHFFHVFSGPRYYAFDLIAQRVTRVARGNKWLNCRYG

Substance | Percent cleavage [1] | Percent cleavage [2] | Percent cleavage [3] | Percent cleavage [4] | Percent cleavage [5] | Percent cleavage [6] | Percent cleavage [7] | Percent cleavage [8] | Percent cleavage [9] | Percent cleavage [10] | Percent cleavage [11] | Percent cleavage [12] | Percent cleavage [13] | Percent cleavage [14] | Percent cleavage [15] | Percent cleavage [16] | Percent cleavage [17] | Percent cleavage [18] | Percent cleavage [19] | Percent cleavage [20] | other results
MMP-8 | 25% | 0% | 25% | 0% | 0% | 0% | 0% | 20% | 0% | 15% | 0% | 18% | 0% | 0% | 0% | 18% | 6% | 0% | 0% | 0% | Percent cleavage [21]: 0%; Percent cleavage [22]: 6%; Percent cleavage [23]: 8%; Percent cleavage [24]: 0%; Percent cleavage [25]: 44%; Percent cleavage [26]: 7%; Percent cleavage [27]: 0%; Percent cleavage [28]: 29%; Percent cleavage [29]: 8%; Percent cleavage [30]: 7%; Percent cleavage [31]: 0%; Percent cleavage [32]: 13%; Percent cleavage [33]: 11%; Percent cleavage [34]: 16%; Percent cleavage [35]: 0%; Percent cleavage [36]: 61%; Percent cleavage [37]: 0%
MMP-9 | 36% | 0% | 19% | 19% | 7% | 59% | 0% | 46% | 0% | 54% | 51% | 70% | 29% | 7% | 0% | 32% | 63% | 27% | 21% | 8% | Percent cleavage [21]: 20%; Percent cleavage [22]: 63%; Percent cleavage [23]: 9%; Percent cleavage [24]: 11%; Percent cleavage [25]: 74%; Percent cleavage [26]: 52%; Percent cleavage [27]: 60%; Percent cleavage [28]: 75%; Percent cleavage [29]: 0%; Percent cleavage [30]: 13%; Percent cleavage [31]: 0%; Percent cleavage [32]: 50%; Percent cleavage [33]: 57%; Percent cleavage [34]: 29%; Percent cleavage [35]: 57%; Percent cleavage [36]: 80%; Percent cleavage [37]: 17%

Reference: US20240336909
